This test addresses T1, CD16a (UniProt P08637 17-208, limits assumed).
T1 construct: also called Fc receptor CD16
The test is described as follows: surface plasmon resonance traces (FIG. 10D).

T1 sequence (P08637 17-208 limits assumed): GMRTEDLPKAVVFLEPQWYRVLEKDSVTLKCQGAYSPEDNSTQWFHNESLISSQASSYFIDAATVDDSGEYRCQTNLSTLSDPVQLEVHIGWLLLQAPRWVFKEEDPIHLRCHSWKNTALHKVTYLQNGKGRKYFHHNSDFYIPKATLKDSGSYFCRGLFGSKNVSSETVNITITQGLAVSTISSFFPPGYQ

B1: Anti-CD16 nanobody (VHH)
VHH: EVQLTESGGEDVQAGGSLRLSCSASGLTFSSYNMGWFRRAPGKEREFVASITWSGRDTFYADSVKGRFTISRDNAKNTVYLQMSSLKPEDTATYYCAANPWPVAAPRSGTYWGEGTQVTV
notes: also called αCD16; anti-CD16 single domain antibody
In the case of B1, the binding result is listed as “binds”.

Values taken from patent US20210061922A1 (CITY OF HOPE, published 2021).
